# Measurements: article PMC6488673, “Crystal structure of the Lin28-interacting module of human terminal uridylyltransferase that regulates let-7 expression”
# T1: hTUT4_N;hLin28A (human;human, UniProt Q5TAX3;Q9H9Z2 253-578+611-723;1-209, internal_change|)
# T1 sequence 1: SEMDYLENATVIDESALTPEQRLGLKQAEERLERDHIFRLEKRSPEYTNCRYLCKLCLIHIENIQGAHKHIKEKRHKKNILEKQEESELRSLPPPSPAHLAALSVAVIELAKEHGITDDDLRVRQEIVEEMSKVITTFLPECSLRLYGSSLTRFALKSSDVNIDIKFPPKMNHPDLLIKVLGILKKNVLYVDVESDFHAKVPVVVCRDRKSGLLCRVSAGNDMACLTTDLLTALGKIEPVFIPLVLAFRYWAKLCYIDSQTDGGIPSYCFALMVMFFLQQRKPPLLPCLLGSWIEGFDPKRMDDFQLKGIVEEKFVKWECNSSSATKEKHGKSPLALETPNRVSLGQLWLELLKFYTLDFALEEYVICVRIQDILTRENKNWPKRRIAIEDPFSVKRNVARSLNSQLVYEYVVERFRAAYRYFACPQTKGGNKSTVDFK
# T1 sequence 2: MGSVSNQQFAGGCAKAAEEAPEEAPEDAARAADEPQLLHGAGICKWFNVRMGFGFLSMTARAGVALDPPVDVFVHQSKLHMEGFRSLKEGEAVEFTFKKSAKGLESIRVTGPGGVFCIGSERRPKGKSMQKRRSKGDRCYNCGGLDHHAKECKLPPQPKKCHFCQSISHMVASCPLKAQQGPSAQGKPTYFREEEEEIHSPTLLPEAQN
# Biological target: T1, hTUT4_N;hLin28A
# Test: EMSA; ternary complex; 300 nM each protein, 100 nM RNA; EMSA: 50 mM Tris-HCl pH 8.5, 100 mM NaCl, 10 mM MgCl2, 10 mM beta-mercaptoethanol, 10% glycerol, 10 min, room temperature; Tb(III) footprinting: same salts, 5%
# Settings: protein: recombinant;recombinant; tags: C-terminal expression tag, residues 724-731 (pET22b, XhoI, Ni-NTA);N-terminal His tag (pET28b; Ni-NTA purified); copies: 1;1; label: none in EMSA (ethidium bromide stain); hairpin
binder,measurement,value
pre-let-7a-1 (structured_RNA) RNA: UGAGGUAGUAGGUUGUAUAGUUUUAGGGUCACACCCACCACUGGGAGAUAACUAUACAAUCUACUGUCUUUC,binding result,binds
